Data from article PMC9316690.

Legend:
[1] = target: EFm1 D166Q, full-length chain (E. faecalis phage IME-EF1); assay: crystal structure; EFm1_(D166Q) 15 mg/mL, sitting drop, 16 °C; 2.2 Å; phases by Se-Met SAD
[2] = target: C-terminal domain EFm1 166-237 aa (E. faecalis phage IME-EF1); assay: crystal structure; EFm1_(166–237 aa) 10 mg/mL, sitting drop, 16 °C; 2.0 Å; eight monomers in the asymmetric unit

| stoichiometry N (CTD fragments per full-length chain) [1] | stoichiometry N [2] | Substance |
| --- | --- | --- |
| 3 | – | 8 kDa C-terminal fragment of EFm1, translated from the alternative start codon M168 (domain or fragment) |
| – | 4 | C-terminal domain EFm1 166-237 aa (domain or fragment) |
